Patent US20130225506A1 (POLYPHOR, published 2013)
Each block holds one binder with its values, some of them ahead of it. Square brackets hold non-standard residues; d marks the D form. Primed or numbered codes have the meaning given here. dPro(cis-4-NH2) = N[C@H]1CN[C@@H](C(=O)O)C1; dPro(4S-NH2) = N[C@@H]1CN[C@@H](C(=O)O)C1; Oic = O=C(O)[C@@H]1C[C@@H]2CCCC[C@@H]2N1; hArg = N=C(N)NCCCC[C@H](N)C(=O)O; 3Pal = N[C@@H](Cc1cccnc1)C(=O)O; Tic = O=C(O)[C@@H]1Cc2ccccc2CN1; d3Pal = N[C@H](Cc1cccnc1)C(=O)O; Agb = N=C(N)NCC[C@H](N)C(=O)O; Orn = NCCC[C@H](N)C(=O)O; Dab = NCC[C@H](N)C(=O)O; Pip′ = not defined here; Mor = not defined here

Target: chemokine receptor CXCR7 (UniProt P25106 1-362, limits assumed)
Sequence (P25106 whole entry): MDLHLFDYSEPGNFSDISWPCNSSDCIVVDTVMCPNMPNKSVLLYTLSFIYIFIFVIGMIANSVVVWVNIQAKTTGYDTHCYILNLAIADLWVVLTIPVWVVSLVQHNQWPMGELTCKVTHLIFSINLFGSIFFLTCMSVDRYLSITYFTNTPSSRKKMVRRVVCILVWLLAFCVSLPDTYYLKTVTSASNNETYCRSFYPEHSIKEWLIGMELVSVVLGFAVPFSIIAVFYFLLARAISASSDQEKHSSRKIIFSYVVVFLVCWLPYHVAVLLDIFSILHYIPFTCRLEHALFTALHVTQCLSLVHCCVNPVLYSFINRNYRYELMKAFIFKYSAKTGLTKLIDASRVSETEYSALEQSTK
Test: cell-based or functional assay

B3: cyclo(-Trp-^D3Pal-Trp-Arg-^DPro((4R)NH2)-Tic-) (peptide)
peptide: cyclo(W[d3Pal]WR[dPro(cis-4-NH2)][Tic])
SMILES: N=C(N)NCCC[C@@H]1NC(=O)[C@H](Cc2c[nH]c3ccccc23)NC(=O)[C@@H](Cc2cccnc2)NC(=O)[C@H](Cc2c[nH]c3ccccc23)NC(=O)[C@@H]2Cc3ccccc3CN2C(=O)[C@H]2C[C@@H](N)CN2C1=O
β-Arrestin EC50: 6.1 nM

B4: cyclo(-Agb-^DPhe-Trp-Arg-^DPro((4R)NH2)-Tic-) (peptide)
peptide: cyclo([Agb][dF]WR[dPro(cis-4-NH2)][Tic])
SMILES: N=C(N)NCCC[C@@H]1NC(=O)[C@H](Cc2c[nH]c3ccccc23)NC(=O)[C@@H](Cc2ccccc2)NC(=O)[C@H](CCNC(=N)N)NC(=O)[C@@H]2Cc3ccccc3CN2C(=O)[C@H]2C[C@@H](N)CN2C1=O
β-Arrestin EC50: 452 nM

B5: cyclo(-Arg-^DPhe-Trp-Arg-^DPro((4R)NH2)-Oic-) (peptide)
peptide: cyclo(R[dF]WR[dPro(cis-4-NH2)][Oic])
SMILES: N=C(N)NCCC[C@@H]1NC(=O)[C@@H]2C[C@@H]3CCCC[C@@H]3N2C(=O)[C@H]2C[C@@H](N)CN2C(=O)[C@H](CCCNC(=N)N)NC(=O)[C@H](Cc2c[nH]c3ccccc23)NC(=O)[C@@H](Cc2ccccc2)NC1=O
β-Arrestin EC50: 20.5 nM

B7: cyclo(-Arg-^DPhe-Trp-hArg-^DPro((4R)NH2)-Tic-) (peptide)
peptide: cyclo(R[dF]W[hArg][dPro(cis-4-NH2)][Tic])
SMILES: N=C(N)NCCCC[C@@H]1NC(=O)[C@H](Cc2c[nH]c3ccccc23)NC(=O)[C@@H](Cc2ccccc2)NC(=O)[C@H](CCCNC(=N)N)NC(=O)[C@@H]2Cc3ccccc3CN2C(=O)[C@H]2C[C@@H](N)CN2C1=O
β-Arrestin EC50: 352 nM

B8: cyclo(-3Pal-^DPhe-Trp-Arg-^DPro((4R)NH2)-Tic-) (peptide)
peptide: cyclo([3Pal][dF]WR[dPro(cis-4-NH2)][Tic])
SMILES: N=C(N)NCCC[C@@H]1NC(=O)[C@H](Cc2c[nH]c3ccccc23)NC(=O)[C@@H](Cc2ccccc2)NC(=O)[C@H](Cc2cccnc2)NC(=O)[C@@H]2Cc3ccccc3CN2C(=O)[C@H]2C[C@@H](N)CN2C1=O
β-Arrestin EC50: 5.1 nM

Binder: cyclo([Pip′][dF]WR[dPro(cis-4-NH2)][Tic]) [cyclo(-Pip-^DPhe-Trp-Arg-^DPro((4R)NH2)-Tic-)]
β-Arrestin EC50: 882 nM

B13: cyclo(-Arg-^DPhe-Trp-Arg-^DPro((4R)NH2)-Tic-) (peptide)
peptide: cyclo(R[dF]WR[dPro(cis-4-NH2)][Tic])
SMILES: N=C(N)NCCC[C@@H]1NC(=O)[C@@H]2Cc3ccccc3CN2C(=O)[C@H]2C[C@@H](N)CN2C(=O)[C@H](CCCNC(=N)N)NC(=O)[C@H](Cc2c[nH]c3ccccc23)NC(=O)[C@@H](Cc2ccccc2)NC1=O
β-Arrestin EC50: 248 nM

B14: cyclo(-Ile-^DArg-Lys-Trp-^DPro-Thr-) (peptide)
peptide: cyclo(I[dR]KW[dP]T)
SMILES: CC[C@H](C)[C@@H]1NC(=O)[C@H]([C@@H](C)O)NC(=O)[C@H]2CCCN2C(=O)[C@H](Cc2c[nH]c3ccccc23)NC(=O)[C@H](CCCCN)NC(=O)[C@@H](CCCNC(=N)N)NC1=O
β-Arrestin EC50: 78.7 nM

B15: cyclo(-Arg-^DPhe-Trp-Arg-^DPro((4S)NH2)-Tic-) (peptide)
peptide: cyclo(R[dF]WR[dPro(4S-NH2)][Tic])
SMILES: N=C(N)NCCC[C@@H]1NC(=O)[C@@H]2Cc3ccccc3CN2C(=O)[C@H]2C[C@H](N)CN2C(=O)[C@H](CCCNC(=N)N)NC(=O)[C@H](Cc2c[nH]c3ccccc23)NC(=O)[C@@H](Cc2ccccc2)NC1=O
β-Arrestin EC50: 13.1 nM

B16: cyclo(-Ile-^DArg-Dab-Trp-^DPro-Thr-) (peptide)
peptide: cyclo(I[dR][Dab]W[dP]T)
SMILES: CC[C@H](C)[C@@H]1NC(=O)[C@H]([C@@H](C)O)NC(=O)[C@H]2CCCN2C(=O)[C@H](Cc2c[nH]c3ccccc23)NC(=O)[C@H](CCN)NC(=O)[C@@H](CCCNC(=N)N)NC1=O
β-Arrestin EC50: 87 nM

The next lines start with the values.

β-Arrestin EC50: 119 nM
Binder: cyclo(W[dF]WR[dP][Pro((4S)F)]) [cyclo(-Trp-^DPhe-Trp-Arg-^DPro-Pro((4S)F)-)]

β-Arrestin EC50: 132 nM
Binder: cyclo(W[dF]WR[dP][Mor]) (reading uncertain; also: printed as cyclo(-Trp-^DPhe-Trp-Arg-^DPro-Mor-)) [cyclo(-Trp-^DPhe-Trp-Arg-^DPro-Mor-)]

β-Arrestin EC50: 20.4 nM
B1: cyclo(-Trp-^DPhe-Trp-His-^DPro((4R)NH2)-Tic-) (peptide)
peptide: cyclo(W[dF]WH[dPro(cis-4-NH2)][Tic])
SMILES: N[C@@H]1C[C@@H]2C(=O)N3Cc4ccccc4C[C@H]3C(=O)N[C@@H](Cc3c[nH]c4ccccc34)C(=O)N[C@H](Cc3ccccc3)C(=O)N[C@@H](Cc3c[nH]c4ccccc34)C(=O)N[C@@H](Cc3c[nH]cn3)C(=O)N2C1

β-Arrestin EC50: 20.9 nM
B2: cyclo(-Tyr-^DPhe-Trp-Arg-^DPro((4R)NH2)-Tic-) (peptide)
peptide: cyclo(Y[dF]WR[dPro(cis-4-NH2)][Tic])
SMILES: N=C(N)NCCC[C@@H]1NC(=O)[C@H](Cc2c[nH]c3ccccc23)NC(=O)[C@@H](Cc2ccccc2)NC(=O)[C@H](Cc2ccc(O)cc2)NC(=O)[C@@H]2Cc3ccccc3CN2C(=O)[C@H]2C[C@@H](N)CN2C1=O

β-Arrestin EC50: 26.9 nM
Binder: cyclo(W[dF]WR[dP][Pro((4R)NH2)]) [cyclo(-Trp-^DPhe-Trp-Arg-^DPro-Pro((4R)NH2)-)]

β-Arrestin EC50: 26.1 nM
B6: cyclo(-Trp-^DPhe-Trp-Orn-^DPro((4R)NH2)-Tic-) (peptide)
peptide: cyclo(W[dF]W[Orn][dPro(cis-4-NH2)][Tic])
SMILES: NCCC[C@@H]1NC(=O)[C@H](Cc2c[nH]c3ccccc23)NC(=O)[C@@H](Cc2ccccc2)NC(=O)[C@H](Cc2c[nH]c3ccccc23)NC(=O)[C@@H]2Cc3ccccc3CN2C(=O)[C@H]2C[C@@H](N)CN2C1=O

β-Arrestin EC50: 138 nM
B9: cyclo(-Trp-^DPhe-Trp-Lys-^DPro((4R)NH2)-Tic-) (peptide)
peptide: cyclo(W[dF]WK[dPro(cis-4-NH2)][Tic])
SMILES: NCCCC[C@@H]1NC(=O)[C@H](Cc2c[nH]c3ccccc23)NC(=O)[C@@H](Cc2ccccc2)NC(=O)[C@H](Cc2c[nH]c3ccccc23)NC(=O)[C@@H]2Cc3ccccc3CN2C(=O)[C@H]2C[C@@H](N)CN2C1=O

β-Arrestin EC50: 13.6 nM
B10: cyclo(-Trp-^DPhe-Trp-Dab-^DPro((4R)NH2)-Tic-) (peptide)
peptide: cyclo(W[dF]W[Dab][dPro(cis-4-NH2)][Tic])
SMILES: NCC[C@@H]1NC(=O)[C@H](Cc2c[nH]c3ccccc23)NC(=O)[C@@H](Cc2ccccc2)NC(=O)[C@H](Cc2c[nH]c3ccccc23)NC(=O)[C@@H]2Cc3ccccc3CN2C(=O)[C@H]2C[C@@H](N)CN2C1=O

β-Arrestin EC50: 20.9 nM
B11: cyclo(-Trp-^DPhe-Trp-Arg-^DPro((4R)NH2)-Oic-) (peptide)
peptide: cyclo(W[dF]WR[dPro(cis-4-NH2)][Oic])
SMILES: N=C(N)NCCC[C@@H]1NC(=O)[C@H](Cc2c[nH]c3ccccc23)NC(=O)[C@@H](Cc2ccccc2)NC(=O)[C@H](Cc2c[nH]c3ccccc23)NC(=O)[C@@H]2C[C@@H]3CCCC[C@@H]3N2C(=O)[C@H]2C[C@@H](N)CN2C1=O

β-Arrestin EC50: 12.2 nM
B12: cyclo(-hArg-^DPhe-Trp-Arg-^DPro((4R)NH2)-Tic-) (peptide)
peptide: cyclo([hArg][dF]WR[dPro(cis-4-NH2)][Tic])
SMILES: N=C(N)NCCCC[C@@H]1NC(=O)[C@@H]2Cc3ccccc3CN2C(=O)[C@H]2C[C@@H](N)CN2C(=O)[C@H](CCCNC(=N)N)NC(=O)[C@H](Cc2c[nH]c3ccccc23)NC(=O)[C@@H](Cc2ccccc2)NC1=O

β-Arrestin EC50: 36.9 nM
Binder: cyclo(W[dF]WR[dP][Pro((4S)NH2)]) [cyclo(-Trp-^DPhe-Trp-Arg-^DPro-Pro((4S)NH2)-)]
